# Laboratory results published in patent US12428627B2, “Mutant p-hydroxyphenylpyruvate dioxygenase, and coding nucleic acid and use thereof” (Qingdao Kingagroot Chemical Compound Co., Ltd., priority 2018, dated 2025).
# System: transgenic rice (Zhonghua 11)
# Assay: Herbicide resistance of transgenic rice seedlings (T0) on medium containing tembotrione
# Assay type: in vivo
# Conditions: T0 transgenic seedlings overexpressing the mutant, differentiation medium
# Source text: • 1. Construction of overexpression vector • 1) Primers: primers were designed according to the selected restriction sites and the nucleotide sequence of the gene itself to amplify the three-site mutant HPPD (H141R/G342D/D370N) (OsHPPD3M). The designed primers were synthesized by Beijing Qingke Biotechnology Co., Ltd.: HPPD-F, […] ATGCCTCCCACT CCCACCC, HPPD-R, […] GGC. • 2) PCR amplification: the gene of interest was amplified by using the synthesized primer and Q5 DNA polymerase (NEB, New England Biolabs, Boston, USA). The amplified product was assayed by agarose gel electrophoresis, and the product was recovered according to operational instructions of the TIANquick Midi Purification kit. After the completion of the recovery, the concentration of extracted DNA was determined by Nanodrop. • 3) Construction of a rice overexpression vector: the rice overexpression vector pCAMBIA1301-OsHPPD3M was constructed with the recovered HPPD fragments and plasmid pCAMBIA1301 digested by KpnI and HindIII by using the HB-in Fusions™ seamless cloning kit of HanBio Biotechnology Co., Ltd., (Shanghai), and then transformed into the competent E. coli DH5α to obtain a positive clone; the positive clone was transformed into Agrobacterium after sequencing and restriction endonuclease digestion. • 2. […]
molecule,measurement,value
"H141R/G342D/D370N: three-site mutant rice HPPD (OsHPPD3M) (protein, listed as Oryza sativa, The amino acid sequence of Wild-Type rice HPPD protein (OsHPPD _WT)) MPPTPTPTATTGAVSAAAAAGENAGFRLVGHRRFVRANPRSDRFQALAFHHVELWCADAASAAGRFAFALGAPLAARSDLSTGNSAHASLLLRSASVAFLFTAPYGGDHGVGADAATTASIPSFSPGAARRFAADHGLAVRAVALRVADAADAFRASVAAGARPAFQPADLGGGFGLAEVELYGDVVLRFVSHPDGADAPFLPGFEGVSNPGAVDYGLRRFDHVVGNVPELAPVAAYISGFTGFHEFAEFTAEDVGTAESGLNSVVLANNAETVLLPLNEPVHGTKRRSQIQTYLDHHGGPGVQHIALASDDVLGTLREMRARSAMGGFEFLAPPPPNYYDDVRRRAGDVLSEEQINECQELGVLVDRDNQGVLLQIFTKPVGDRPTFFLEMIQRIGCMEKDESGQEYQKGGCGGFGKGNFSELFKSIEEYEKSLEAKQAPTVQGS",tembotrione concentration in culture medium tolerated (remains green),3 µM
